Source: patent US12097241B2, “Methods of treating kidney failure, and/or improving or stablizing renal function using modified relaxin polypeptides” (BRISTOL-MYERS SQUIBB COMPANY, priority 2017, dated 2024)
pEC50: −log10 of the molar value. Where two headings read alike, the source gives them in different places.

What was measured:
[1] = In vivo pharmacokinetic (PK) studies in rats; parameters: species or system Sprague-Dawley rats; settings: rat, male Sprague-Dawley rats, single SC dose 1.0 mg/kg, serum ELISA; for AUC(0-inf): read-out: Rat PK AUC Total; for level at time molar at 24 h: read-out: Rat PK C24
Method in brief: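 Male Sprague-Dawley rats (n=3) given a single 1 mg/kg IV or SC dose of relaxin constructs in 20 mM histidine, 750 mM NaCl, pH 6.0; jugular serum sampled to 72 h. Serum relaxin by ELISA; Cmax, AUCinf, C24 and half-life from non-compartmental analysis of individual profiles.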

[2] = target: T1, human RXFP1 receptor (Homo sapiens, UniProt Q9HBX9); experiment: Intracellular cAMP accumulation assay; assay type: cell-based
T1 construct: expressed in transfected cells
T1 sequence (Q9HBX9 1-757): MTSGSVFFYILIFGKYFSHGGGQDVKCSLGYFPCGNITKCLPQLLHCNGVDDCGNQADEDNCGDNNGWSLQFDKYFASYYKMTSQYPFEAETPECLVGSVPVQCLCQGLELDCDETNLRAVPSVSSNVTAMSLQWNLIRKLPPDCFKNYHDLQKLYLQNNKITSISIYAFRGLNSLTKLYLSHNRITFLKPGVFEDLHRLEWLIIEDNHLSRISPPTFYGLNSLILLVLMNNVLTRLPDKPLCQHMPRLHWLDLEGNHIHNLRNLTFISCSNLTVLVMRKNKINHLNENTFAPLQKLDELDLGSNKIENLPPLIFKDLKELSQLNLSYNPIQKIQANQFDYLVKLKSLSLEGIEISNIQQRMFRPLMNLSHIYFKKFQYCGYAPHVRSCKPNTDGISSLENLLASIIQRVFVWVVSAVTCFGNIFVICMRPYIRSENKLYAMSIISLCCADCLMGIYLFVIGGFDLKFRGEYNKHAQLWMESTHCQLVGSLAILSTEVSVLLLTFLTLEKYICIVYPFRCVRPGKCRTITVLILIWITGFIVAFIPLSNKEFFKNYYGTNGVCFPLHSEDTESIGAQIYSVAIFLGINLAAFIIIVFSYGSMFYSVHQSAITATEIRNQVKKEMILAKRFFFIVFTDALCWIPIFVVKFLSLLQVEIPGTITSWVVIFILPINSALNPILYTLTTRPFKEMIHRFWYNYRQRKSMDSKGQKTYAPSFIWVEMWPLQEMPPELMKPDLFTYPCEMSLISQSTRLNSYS

## CC[C@H](C)[C@@H]1NC(=O)[C@H](C)NC(=O)[C@H]([C@@H](C)CC)NC(=O)[C@H](CCC(N)=O)NC(=O)[C@H](C)NC(=O)[C@H](CCCNC(=N)N)NC(=O)[C@H](C(C)C)NC(=O)[C@H](CC(C)C)NC(=O)[C@H](CCC(=O)O)NC(=O)[C@H](CCCNC(=N)N)NC(=O)CNC(=O)[C@@H](NC(=O)[C@H](CC(C)C)NC(=O)[C@H](CCCCN)NC(=O)[C@@H](NC(=O)[C@@H](NC(=O)[C@H](CCC(=O)O)NC(=O)[C@H](CCC(=O)O)NC(=O)[C@H](CCSC)NC(=O)[C@H](Cc2c[nH]c3ccccc23)NC(=O)[C@H](CO)NC(=O)[C@H](C)N)C(C)C)[C@@H](C)CC)CSSC[C@@H]2NC(=O)[C@@H](NC(=O)[C@H](CCCCN)NC(=O)[C@H](CC(N)=O)NC(=O)[C@H](C)NC(=O)[C@H](CC(C)C)NC(=O)[C@H](C)NC(=O)[C@H](CO)NC(=O)[C@H](Cc3ccc(O)cc3)NC(=O)[C@H](CC(C)C)NC(=O)[C@@H](N)Cc3ccc(C(C)=NOCCNC(=O)[C@H](CCCCN)NC(=O)[C@H](CCCCN)NC(=O)CC[C@H](NC(=O)CCCCCCCCCCCCCC(=O)O)C(=O)O)cc3)CSSC[C@H](NC(=O)CNC(=O)[C@H](C(C)C)NC(=O)[C@H](Cc3c[nH]cn3)NC2=O)C(=O)N[C@@H]([C@@H](C)O)C(=O)N[C@@H](CCCCN)C(=O)N[C@@H](CCCNC(=N)N)C(=O)N[C@@H](CO)C(=O)N[C@@H](CC(C)C)C(=O)N[C@@H](C)C(=O)N[C@@H](CCCNC(=N)N)C(=O)N[C@@H](Cc2ccccc2)C(=O)N[C@H](C(=O)O)CSSC[C@@H](C(=O)NCC(=O)N[C@@H](CCSC)C(=O)N[C@@H](CO)C(=O)N[C@H](C(=O)N[C@@H](Cc2c[nH]c3ccccc23)C(=O)N[C@@H](CO)C(=O)O)[C@@H](C)O)NC1=O [AQ1-KK-Glu^γ-C14-COOH]
[1]
  AUC(0-inf): 0.451 µM·h
  level at time molar at 24 h: 1.5 nM
[2]
  pEC50: 9.47

## CC[C@H](C)[C@@H]1NC(=O)[C@H](C)NC(=O)[C@H]([C@@H](C)CC)NC(=O)[C@H](CCC(N)=O)NC(=O)[C@H](C)NC(=O)[C@H](CCCNC(=N)N)NC(=O)[C@H](C(C)C)NC(=O)[C@H](CC(C)C)NC(=O)[C@H](CCC(=O)O)NC(=O)[C@H](CCCNC(=N)N)NC(=O)CNC(=O)[C@@H](NC(=O)[C@H](CC(C)C)NC(=O)[C@H](CCCCN)NC(=O)[C@@H](NC(=O)[C@@H](NC(=O)[C@H](CCC(=O)O)NC(=O)[C@H](CCC(=O)O)NC(=O)[C@H](CCSC)NC(=O)[C@H](Cc2c[nH]c3ccccc23)NC(=O)[C@H](CO)NC(=O)[C@H](C)N)C(C)C)[C@@H](C)CC)CSSC[C@@H]2NC(=O)[C@@H](NC(=O)[C@H](CCCCN)NC(=O)[C@H](CC(N)=O)NC(=O)[C@H](C)NC(=O)[C@H](CC(C)C)NC(=O)[C@H](C)NC(=O)[C@H](CO)NC(=O)[C@H](Cc3ccc(O)cc3)NC(=O)[C@H](CC(C)C)NC(=O)[C@@H](N)Cc3ccc(C(C)=NOCCNC(=O)[C@H](CCCCN)NC(=O)[C@H](CCCCN)NC(=O)[C@H](CCCCN)NC(=O)CNC(=O)CNC(=O)CNC(=O)CC[C@H](NC(=O)CCCCCCCCCCCCC(=O)O)C(=O)O)cc3)CSSC[C@H](NC(=O)CNC(=O)[C@H](C(C)C)NC(=O)[C@H](Cc3c[nH]cn3)NC2=O)C(=O)N[C@@H]([C@@H](C)O)C(=O)N[C@@H](CCCCN)C(=O)N[C@@H](CCCNC(=N)N)C(=O)N[C@@H](CO)C(=O)N[C@@H](CC(C)C)C(=O)N[C@@H](C)C(=O)N[C@@H](CCCNC(=N)N)C(=O)N[C@@H](Cc2ccccc2)C(=O)N[C@H](C(=O)O)CSSC[C@@H](C(=O)NCC(=O)N[C@@H](CCSC)C(=O)N[C@@H](CO)C(=O)N[C@H](C(=O)N[C@@H](Cc2c[nH]c3ccccc23)C(=O)N[C@@H](CO)C(=O)O)[C@@H](C)O)NC1=O [AQ1-KKKGGG-Glu^γ-C13-COOH]
[1]
  AUC(0-inf): 0.258 µM·h
  level at time molar at 24 h: 0.24 nM
[2]; CHO-K1 cells stably expressing human RXFP1, 10 min at 37° C., HTRF cAMP, average, read-out: hRXFP1/CHO-K1 cAMP EC50 (nM, avg)
  EC50: 0.09 nM

## CC[C@H](C)[C@@H]1NC(=O)[C@H](C)NC(=O)[C@H]([C@@H](C)CC)NC(=O)[C@H](CCC(N)=O)NC(=O)[C@H](C)NC(=O)[C@H](CCCNC(=N)N)NC(=O)[C@H](C(C)C)NC(=O)[C@H](CC(C)C)NC(=O)[C@H](CCC(=O)O)NC(=O)[C@H](CCCNC(=N)N)NC(=O)CNC(=O)[C@@H](NC(=O)[C@H](CC(C)C)NC(=O)[C@H](CCCCN)NC(=O)[C@@H](NC(=O)[C@@H](NC(=O)[C@H](CCC(=O)O)NC(=O)[C@H](CCC(=O)O)NC(=O)[C@H](CCSC)NC(=O)[C@H](Cc2c[nH]c3ccccc23)NC(=O)[C@H](CO)NC(=O)[C@H](C)N)C(C)C)[C@@H](C)CC)CSSC[C@@H]2NC(=O)[C@@H](NC(=O)[C@H](CCCCN)NC(=O)[C@H](CC(N)=O)NC(=O)[C@H](C)NC(=O)[C@H](CC(C)C)NC(=O)[C@H](C)NC(=O)[C@H](CO)NC(=O)[C@H](Cc3ccc(O)cc3)NC(=O)[C@H](CC(C)C)NC(=O)[C@@H](N)Cc3ccc(C(C)=NOCCNC(=O)[C@H](CCCCN)NC(=O)[C@H](CCCCN)NC(=O)[C@H](CCCCN)NC(=O)[C@H](CO)NC(=O)CNC(=O)CNC(=O)[C@H](CO)NC(=O)CNC(=O)CNC(=O)CC[C@H](NC(=O)CCCCCCCCCCCCC(=O)O)C(=O)O)cc3)CSSC[C@H](NC(=O)CNC(=O)[C@H](C(C)C)NC(=O)[C@H](Cc3c[nH]cn3)NC2=O)C(=O)N[C@@H]([C@@H](C)O)C(=O)N[C@@H](CCCCN)C(=O)N[C@@H](CCCNC(=N)N)C(=O)N[C@@H](CO)C(=O)N[C@@H](CC(C)C)C(=O)N[C@@H](C)C(=O)N[C@@H](CCCNC(=N)N)C(=O)N[C@@H](Cc2ccccc2)C(=O)N[C@H](C(=O)O)CSSC[C@@H](C(=O)NCC(=O)N[C@@H](CCSC)C(=O)N[C@@H](CO)C(=O)N[C@H](C(=O)N[C@@H](Cc2c[nH]c3ccccc23)C(=O)N[C@@H](CO)C(=O)O)[C@@H](C)O)NC1=O [AQ1-KKKSGGSGG-Glu^γ-C13-COOH]
[1]
  AUC(0-inf): 0.264 µM·h
  level at time molar at 24 h: 0.21 nM
[2]
  pEC50: 9.85

## CC[C@H](C)[C@@H]1NC(=O)[C@H](C)NC(=O)[C@H]([C@@H](C)CC)NC(=O)[C@H](CCC(N)=O)NC(=O)[C@H](C)NC(=O)[C@H](CCCNC(=N)N)NC(=O)[C@H](C(C)C)NC(=O)[C@H](CC(C)C)NC(=O)[C@H](CCC(=O)O)NC(=O)[C@H](CCCNC(=N)N)NC(=O)CNC(=O)[C@@H](NC(=O)[C@H](CC(C)C)NC(=O)[C@H](CCCCN)NC(=O)[C@@H](NC(=O)[C@@H](NC(=O)[C@H](CCC(=O)O)NC(=O)[C@H](CCC(=O)O)NC(=O)[C@H](CCSC)NC(=O)[C@H](Cc2c[nH]c3ccccc23)NC(=O)[C@H](CO)NC(=O)[C@H](C)N)C(C)C)[C@@H](C)CC)CSSC[C@@H]2NC(=O)[C@@H](NC(=O)[C@H](CCCCN)NC(=O)[C@H](CC(N)=O)NC(=O)[C@H](C)NC(=O)[C@H](CC(C)C)NC(=O)[C@H](C)NC(=O)[C@H](CO)NC(=O)[C@H](Cc3ccc(O)cc3)NC(=O)[C@H](CC(C)C)NC(=O)[C@@H](N)Cc3ccc(C(C)=NOCCNC(=O)[C@H](CCCCN)NC(=O)[C@H](CCCCN)NC(=O)[C@H](CO)NC(=O)CNC(=O)CNC(=O)[C@H](CO)NC(=O)CNC(=O)CNC(=O)[C@H](CCC(=O)O)NC(=O)[C@H](CCC(=O)O)NC(=O)CC[C@H](NC(=O)CCCCCCCCCCCCC(=O)O)C(=O)O)cc3)CSSC[C@H](NC(=O)CNC(=O)[C@H](C(C)C)NC(=O)[C@H](Cc3c[nH]cn3)NC2=O)C(=O)N[C@@H]([C@@H](C)O)C(=O)N[C@@H](CCCCN)C(=O)N[C@@H](CCCNC(=N)N)C(=O)N[C@@H](CO)C(=O)N[C@@H](CC(C)C)C(=O)N[C@@H](C)C(=O)N[C@@H](CCCNC(=N)N)C(=O)N[C@@H](Cc2ccccc2)C(=O)N[C@H](C(=O)O)CSSC[C@@H](C(=O)NCC(=O)N[C@@H](CCSC)C(=O)N[C@@H](CO)C(=O)N[C@H](C(=O)N[C@@H](Cc2c[nH]c3ccccc23)C(=O)N[C@@H](CO)C(=O)O)[C@@H](C)O)NC1=O [AQ1-KKSGGSGGEE-Glu^γ-C13-COOH]
[1]
  AUC(0-inf): 0.676 µM·h
  level at time molar at 24 h: 0.09 nM
[2]
  pEC50: 9.80
